According to patent US20240309051A1, “[…] T (TFH) CELLS […] TO SARS-COV-2 VIRUS” (priority 2021, published 2024):

Target: T1, SARS-COV-2 S protein, S867-881 peptide with residue 3 (Q) of SEQ ID NO: 13 replaced with alanine peptide on … (human)
T1 peptide: DEMIAAYTSALLAGT
Assay: activation reporter or marker

B1: Clone 1 (TCR-017) (TCR)
alpha TRAV12-1 TRAJ12 CDR3: CVVNRGSSYKLIF
beta TRBV11-2 TRBJ2-7 CDR3: CASSQTYEQYF
binding result: no recognition
